Series [1] has as its system HeLa Kyoto. Nature of the series: thermal stability score vs G1/S (z-score of summed log2 fold changes over temperatures); higher = more thermally stable than in G1/S.
For series [2], the system named is HeLa Kyoto. Nature of the series: melting temperature (median over replicates), in situ; higher = more thermally stable.
For series [3], the system named is HeLa Kyoto. Nature of the series: solubility change mitosis vs G1/S (difference of NP-40 vs SDS log2 ratios) (log2 ratio difference); higher = more soluble in mitosis.
The subject of series [4] is HeLa Kyoto. Briefly: solubility in G1/S (NP-40 vs SDS abundance) (log2 ratio); higher = more soluble. The conditions noted are these: cell cycle stage: G1/S.
The mark [5] stands for this setting: cell cycle stage: early G1 (4.5 h after nocodazole release).
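Throughout, for melting temperature (median over replicates), in situ: HeLa Kyoto cells synchronized by double thymidine or nocodazole block, proteins quantified by TMT10plex mass spectrometry, three independent biological replicates.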
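Throughout, for solubility change mitosis vs G1/S (difference of NP-40 vs SDS log2 ratios): synchronized HeLa Kyoto cells (double thymidine block for G1/S, nocodazole release for mitosis), protein amounts in NP-40 versus SDS lysates quantified by mass spectrometry, three biological replicates.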
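Throughout, for solubility in G1/S (NP-40 vs SDS abundance): HeLa Kyoto cells arrested at G1/S by double thymidine block, proteins quantified by TMT10plex mass spectrometry in mild NP-40 versus SDS extracts, three biological replicates.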
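Throughout, for thermal stability score vs G1/S (z-score of summed log2 fold changes over temperatures): synchronized HeLa Kyoto cells, proteins quantified by TMT10plex mass spectrometry, three biological replicates, mitosis taken 0.5 h after nocodazole release, G1/S directly after double thymidine block.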

Chain of GALNT2 (chain, as listed by the source): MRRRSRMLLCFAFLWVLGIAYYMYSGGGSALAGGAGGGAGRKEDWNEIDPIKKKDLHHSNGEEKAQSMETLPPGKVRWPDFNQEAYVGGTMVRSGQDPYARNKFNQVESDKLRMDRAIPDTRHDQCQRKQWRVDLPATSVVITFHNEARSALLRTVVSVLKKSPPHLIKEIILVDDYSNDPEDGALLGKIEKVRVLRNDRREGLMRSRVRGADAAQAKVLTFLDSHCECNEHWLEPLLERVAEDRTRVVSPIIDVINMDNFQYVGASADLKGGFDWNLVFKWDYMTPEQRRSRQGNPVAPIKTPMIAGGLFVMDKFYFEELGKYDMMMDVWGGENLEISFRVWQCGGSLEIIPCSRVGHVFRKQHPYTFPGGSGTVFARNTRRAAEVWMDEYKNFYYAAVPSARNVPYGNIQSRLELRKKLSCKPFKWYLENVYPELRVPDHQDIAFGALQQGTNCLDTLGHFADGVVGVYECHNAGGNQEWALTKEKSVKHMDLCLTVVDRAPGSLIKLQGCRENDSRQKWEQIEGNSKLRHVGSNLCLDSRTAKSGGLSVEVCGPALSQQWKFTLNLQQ

Regarding “MLKFRTVHGGLRLLGIRRTSTAPAASPNVRRLEYKPIKKVMVANRGEIAIRVFRACTELGIRTVAIYSEQDTGQMHRQKADEAYLIGRGLAPVQAYLHIPDIIKVAKENNVDAVHPGYGFLSERADFAQACQDAGVRFIGPSPEVVRKMGDKVEARAIAIAAGVPVVPGTDAPITSLHEAHEFSNTYGFPIIFKAAYGGGGRGMRVVHSYEELEENYTRAYSEALAAFGNGALFVEKFIEKPRHIEVQILGDQYGNILHLYERDCSIQRRHQKVVEIAPAAHLDPQLRTRLTSDSVKLAKQVGYENAGTVEFLVDRHGKHYFIEVNSRLQVEHTVTEEITDVDLVHAQIHVAEGRSLPDLGLRQENIRINGCAIQCRVTTEDPARSFQPDTGRIEVFRSGEGMGIRLDNASAFQGAVISPHYDSLLVKVIAHGKDHPTAATKMSRALAEFRVRGVKTNIAFLQNVLNNQQFLAGTVDTQFIDENPELFQLRPAQNRAQKLLHYLGHVMVNGPTTPIPVKASPSPTDPVVPAVPIGPPPAGFRDILLREGPEGFARAVRNHPGLLLMDTTFRDAHQSLLATRVRTHDLKKIAPYVAHNFSKLFSMENWGGATFDVAMRFLYECPWRRLQELRELIPNIPFQMLLRGANAVGYTNYPDNVVFKFCEVAKENGMDVFRVFDSLNYLPNMLLGMEAAGSAGGVVEAAISYTGDVADPSRTKYSLQYYMGLAEELVRAGTHILCIKDMAGLLKPTACTMLVSSLRDRFPDLPLHIHTHDTSGAGVAAMLACAQAGADVVDVAADSMSGMTSQPSMGALVACTRGTPLDTEVPMERVFDYSEYWEGARGLYAAFDCTATMKSGNSDVYENEIPGGQYTNLHFQAHSMGLGSKFKEVKKAYVEANQMLGDLIKVTPSSKIVGDLAQFMVQNGLSRAEAEAQAEELSFPRSVVEFLQGYIGVPHGGFPEPFRSKVLKDLPRVEGRPGASLPPLDLQALEKELVDRHGEEVTPEDVLSAAMYPDVFAHFKDFTATFGPLDSLNTRLFLQGPKIAEEFEVELERGKTLHIKALAVSDLNRAGQRQVFFELNGQLRSILVKDTQAMKEMHFHPKALKDVKGQIGAPMPGKVIDIKVVAGAKVAKGQPLCVLSAMKMETVVTSPMEGTVRKVHVTKDMTLEGDDLILEIE [PC]”, the thermal stability score is -1.77 with HeLa Kyoto [1] (setting [5]) and -2.7 with HeLa Kyoto [1] (cell cycle stage: mitosis). Also, the melting temperature in the series on HeLa Kyoto [2] (cell cycle stage: G1/S) was determined as 51.4 °C; with HeLa Kyoto [2] (cell cycle stage: mitosis) it was 51.5 °C. The “solubility change mitosis (log2)” value with HeLa Kyoto [3] was -0.101. Moreover, the “solubility in G1/S (log2)” value in the series with HeLa Kyoto [4] was -0.0111.
On to GALNT2, for which the thermal stability score in the series with HeLa Kyoto [1] (setting [5]) was found to be 9.37; with HeLa Kyoto [1] (cell cycle stage: mitosis), 17.4. For the same substance, the melting temperature with HeLa Kyoto [2] (cell cycle stage: G1/S) came to 51.6 °C; in the series with HeLa Kyoto [2] (cell cycle stage: mitosis), 52 °C. In addition, the “solubility change mitosis (log2)” value with HeLa Kyoto [3] was -0.0991. Also, in the series with HeLa Kyoto [4], the “solubility in G1/S (log2)” value was -0.0412.
As to “MDPSDFPSPFDPLTLPEKPLAGDLPVDMEFGEDLLESQTAPTRGWAPPGPSPSSGALDLLDTPAGLEKDPGVLDGATELLGLGGLLYKAPSPPEVDHGPEGTLAWDAGDQTLEPGPGGQTPEVVPPDPGAGANSCSPEGLLEPLAPDSPITLQSPHIEEEETTSIATARRGSPGQEEELPQGQPQSPNAPPSPSVGETLGDGINSSQTKPGGSSPPAHPSLPGDGLTAKASEKPPERKRSERVRRAEPPKPEVVDSTESIPVSDEDSDAMVDDPNDEDFVPFRPRRSPRMSLRSSVSQRAGRSAVGTKMTCAHCRTPLQKGQTAYQRKGLPQLFCSSSCLTTFSKKPSGKKTCTFCKKEIWNTKDSVVAQTGSGGSFHEFCTSVCLSLYEAQQQRPIPQSGDPADATRCSICQKTGEVLHEVSNGSVVHRLCSDSCFSKFRANKGLKTNCCDQCGAYIYTKTGSPGPELLFHEGQQKRFCNTTCLGAYKKKNTRVYPCVWCKTLCKNFEMLSHVDRNGKTSLFCSLCCTTSYKVKQAGLTGPPRPCSFCRRSLSDPCYYNKVDRTVYQFCSPSCWTKFQRTSPEGGIHLSCHYCHSLFSGKPEVLDWQDQVFQFCCRDCCEDFKRLRGVVSQCEHCRQEKLLHEKLRFSGVEKSFCSEGCVLLYKQDFTKKLGLCCITCTYCSQTCQRGVTEQLDGSTWDFCSEDCKSKYLLWYCKAARCHACKRQGKLLETIHWRGQIRHFCNQQCLLRFYSQQNQPNLDTQSGPESLLNSQSPESKPQTPSQTKVENSNTVRTPEENGNLGKIPVKTRSAPTAPTPPPPPPPATPRKNKAAMCKPLMQNRGVSCKVEMKSKGSQTEEWKPQVIVLPIPVPIFVPVPMHLYCQKVPVPFSMPIPVPVPMFLPTTLESTDKIVETIEELKVKIPSNPLEADILAMAEMIAEAEELDKASSDLCDLVSNQSAEGLLEDCDLFGPARDDVLAMAVKMANVLDEPGQDLEADFPKNPLDINPSVDFLFDCGLVGPEDVSTEQDLPRTMRKGQKRLVLSESCSRDSMSSQPSCTGLNYSYGVNAWKCWVQSKYANGETSKGDELRFGPKPMRIKEDILACSAAELNYGLAQFVREITRPNGERYEPDSIYYLCLGIQQYLLENNRMVNIFTDLYYLTFVQELNKSLSTWQPTLLPNNTVFSRVEEEHLWECKQLGVYSPFVLLNTLMFFNTKFFGLQTAEEHMQLSFTNVVRQSRKCTTPRGTTKVVSIRYYAPVRQRKGRDTGPGKRKREDEAPILEQRENRMNPLRCPVKFYEFYLSKCPESLRTRNDVFYLQPERSCIAESPLWYSVIPMDRSMLESMLNRILAVREIYEELGRPGEEDLD [ZMYM3]”, the results for the thermal stability score with HeLa Kyoto [1] (setting [5]) and in the series on HeLa Kyoto [1] (cell cycle stage: mitosis) were 0.311 and 1.4, respectively. The melting temperature in the series with HeLa Kyoto [2] (cell cycle stage: G1/S) was determined as 49.3 °C; in the series with HeLa Kyoto [2] (cell cycle stage: mitosis), 50.6 °C. The “solubility change mitosis (log2)” value in the series with HeLa Kyoto [3] is 0.169. The “solubility in G1/S (log2)” value in the series on HeLa Kyoto [4] was -0.523.

Values taken from the supplement of paper PMC5998384.
